In US20210054097A1 (Novo Nordisk, published 2021):
Ends that are not written are not given here.

Key:
[1] = target: human activated Factor X (human, UniProt P00742 41-179; P00742 235-488); experiment: cell-based or functional assay
[2] = target: T1, FX activation peptide 12-mer KPYDAADLDPTE (human); experiment: peptide ELISA
T1 peptide: KPYDAADLDPTE-biotin
Procedure, shortened: (§1)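 Nanobodies (FLAG-tagged) or IgG antibodies, 2 μg/mL, incubated 1 h on C-terminally biotinylated peptide captured via streptavidin, washing buffer pH 8.60 containing CaCl₂ and Tween 20. Read-out: HRP-conjugated secondary antibody with TMB colour development.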

[3] = target: T2, FX activation peptide 12-mer VAQATSSSGEAP (human); experiment: peptide ELISA
T2 peptide: VAQATSSSGEAP-biotin
Procedure, shortened: as §1

[4] = target: T3, FX activation peptide 12-mer YDAADLDPTENP (human); experiment: peptide ELISA
T3 peptide: YDAADLDPTENP-biotin
Procedure, shortened: as §1

[5] = target: T4, FX activation peptide 12-mer NPFDLLDFNQTQ (human); experiment: peptide ELISA
T4 peptide: NPFDLLDFNQTQ-biotin
Procedure, shortened: as §1

[6] = target: T5, FX activation peptide 12-mer TWKPYDAADLDP (human); experiment: peptide ELISA
T5 peptide: TWKPYDAADLDP-biotin
Procedure, shortened: as §1

[7] = target: T6, FX activation peptide 12-mer ADLDPTENPFDL (human); experiment: peptide ELISA
T6 peptide: ADLDPTENPFDL-biotin
Procedure, shortened: as §1

[8] = target: T7, FX activation peptide 12-mer SSGEAPDSITWK (human); experiment: peptide ELISA
T7 peptide: SSGEAPDSITWK-biotin
Procedure, shortened: as §1

[9] = target: T8, FX activation peptide 12-mer WKPYDAADLDPT (human); experiment: peptide ELISA
T8 peptide: WKPYDAADLDPT-biotin
Procedure, shortened: as §1

[10] = target: T9, FX activation peptide 12-mer SITWKPYDAADL (human); experiment: peptide ELISA
T9 peptide: SITWKPYDAADL-biotin
Procedure, shortened: as §1

[11] = target: T10, FX activation peptide 12-mer PYDAADLDPTEN (human); experiment: peptide ELISA
T10 peptide: PYDAADLDPTEN-biotin
Procedure, shortened: as §1

[12] = target: T11, FX activation peptide 12-mer SSSGEAPDSITW (human); experiment: peptide ELISA
T11 peptide: SSSGEAPDSITW-biotin
Procedure, shortened: as §1

[13] = target: T12, FX activation peptide 12-mer SGEAPDSITWKP (human); experiment: peptide ELISA
T12 peptide: SGEAPDSITWKP-biotin
Procedure, shortened: as §1

[14] = target: T13, FX activation peptide 12-mer EAPDSITWKPYD (human); experiment: peptide ELISA
T13 peptide: EAPDSITWKPYD-biotin
Procedure, shortened: as §1

[15] = target: T14, FX activation peptide 12-mer LDFNQTQPERGD (human); experiment: peptide ELISA
T14 peptide: LDFNQTQPERGD-biotin
Procedure, shortened: as §1

[16] = target: T15, FX activation peptide 12-mer DSITWKPYDAAD (human); experiment: peptide ELISA
T15 peptide: DSITWKPYDAAD-biotin
Procedure, shortened: as §1

[17] = target: T16, FX activation peptide 12-mer ATSSSGEAPDSI (human); experiment: peptide ELISA
T16 peptide: ATSSSGEAPDSI-biotin
Procedure, shortened: as §1

[18] = target: T17, FX activation peptide 12-mer TENPFDLLDFNQ (human); experiment: peptide ELISA
T17 peptide: TENPFDLLDFNQ-biotin
Procedure, shortened: as §1

[19] = target: T18, FX activation peptide 12-mer DLDPTENPFDLL (human); experiment: peptide ELISA
T18 peptide: DLDPTENPFDLL-biotin
Procedure, shortened: as §1

[20] = target: T19, FX activation peptide 12-mer AADLDPTENPFD (human); experiment: peptide ELISA
T19 peptide: AADLDPTENPFD-biotin
Procedure, shortened: as §1

[21] = target: T20, FX activation peptide 12-mer AQATSSSGEAPD (human); experiment: peptide ELISA
T20 peptide: AQATSSSGEAPD-biotin
Procedure, shortened: as §1

[22] = target: T21, FX activation peptide 12-mer ENPFDLLDFNQT (human); experiment: peptide ELISA
T21 peptide: ENPFDLLDFNQT-biotin
Procedure, shortened: as §1

[23] = target: T22, FX activation peptide 12-mer DFNQTQPERGDN (human); experiment: peptide ELISA
T22 peptide: DFNQTQPERGDN-biotin
Procedure, shortened: as §1

[24] = target: T23, FX activation peptide 12-mer TSSSGEAPDSIT (human); experiment: peptide ELISA
T23 peptide: TSSSGEAPDSIT-biotin
Procedure, shortened: as §1

[25] = target: T24, FX activation peptide 12-mer DLLDFNQTQPER (human); experiment: peptide ELISA
T24 peptide: DLLDFNQTQPER-biotin
Procedure, shortened: as §1

[26] = target: T25, FX activation peptide 12-mer APDSITWKPYDA (human); experiment: peptide ELISA
T25 peptide: APDSITWKPYDA-biotin
Procedure, shortened: as §1

[27] = target: T26, FX activation peptide 12-mer LLDFNQTQPERG (human); experiment: peptide ELISA
T26 peptide: LLDFNQTQPERG-biotin
Procedure, shortened: as §1

[28] = target: T27, FX activation peptide 12-mer PDSITWKPYDAA (human); experiment: peptide ELISA
T27 peptide: PDSITWKPYDAA-biotin
Procedure, shortened: as §1

[29] = target: T28, FX activation peptide 12-mer NQTQPERGDNNL (human); experiment: peptide ELISA
T28 peptide: NQTQPERGDNNL-biotin
Procedure, shortened: as §1

[30] = target: T29, FX activation peptide 12-mer SVAQATSSSGEA (human); experiment: peptide ELISA
T29 peptide: SVAQATSSSGEA-biotin
Procedure, shortened: as §1

[31] = target: T30, FX activation peptide 12-mer FDLLDFNQTQPE (human); experiment: peptide ELISA
T30 peptide: FDLLDFNQTQPE-biotin
Procedure, shortened: as §1

[32] = target: T31, FX activation peptide 12-mer ITWKPYDAADLD (human); experiment: peptide ELISA
T31 peptide: ITWKPYDAADLD-biotin
Procedure, shortened: as §1

[33] = target: T32, FX activation peptide 12-mer QTQPERGDNNLT (human); experiment: peptide ELISA
T32 peptide: QTQPERGDNNLT-biotin
Procedure, shortened: as §1

human activated Factor X, sequence (P00742 41-179, chain 1 of 2): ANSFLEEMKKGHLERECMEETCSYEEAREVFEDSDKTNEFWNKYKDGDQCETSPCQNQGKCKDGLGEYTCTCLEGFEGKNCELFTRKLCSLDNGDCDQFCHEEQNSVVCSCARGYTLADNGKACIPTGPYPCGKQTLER
human activated Factor X, sequence (P00742 235-488, chain 2 of 2): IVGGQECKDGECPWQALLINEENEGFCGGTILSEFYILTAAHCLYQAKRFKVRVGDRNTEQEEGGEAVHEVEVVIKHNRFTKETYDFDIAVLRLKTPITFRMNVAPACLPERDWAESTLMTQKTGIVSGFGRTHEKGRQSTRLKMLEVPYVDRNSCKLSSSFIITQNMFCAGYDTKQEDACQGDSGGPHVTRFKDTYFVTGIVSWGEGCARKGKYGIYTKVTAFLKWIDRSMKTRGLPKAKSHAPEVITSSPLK

FXa amidolytic activity (relative to free FXa, fold) [1]: 1.09 fold
ELISA signal relative to background [2]: 1.1
ELISA signal relative to background [3]: 1.09
ELISA signal relative to background [4]: 1.09
ELISA signal relative to background [5]: 3.41
ELISA signal relative to background [6]: 1.17
ELISA signal relative to background [7]: 1.11
ELISA signal relative to background [8]: 1.06
ELISA signal relative to background [9]: 1.08
ELISA signal relative to background [10]: 1.11
ELISA signal relative to background [11]: 1.08
ELISA signal relative to background [12]: 1.1
ELISA signal relative to background [13]: 1.07
ELISA signal relative to background [14]: 1.11
ELISA signal relative to background [15]: 1.12
ELISA signal relative to background [16]: 1.09
ELISA signal relative to background [17]: 1.13
ELISA signal relative to background [18]: 3.14
ELISA signal relative to background [19]: 1.21
ELISA signal relative to background [20]: 1.17
ELISA signal relative to background [21]: 1.17
ELISA signal relative to background [22]: 8.06
ELISA signal relative to background [23]: 1.1
ELISA signal relative to background [24]: 1.06
ELISA signal relative to background [25]: 1.22
ELISA signal relative to background [26]: 1.09
ELISA signal relative to background [27]: 1.13
ELISA signal relative to background [28]: 1.17
ELISA signal relative to background [29]: 1.09
ELISA signal relative to background [30]: 1.14
ELISA signal relative to background [31]: 1.15
ELISA signal relative to background [32]: 1.06
B1: Nb 729C08 (VHH)
VHH: EVQLVESGGGVVQPGGSLRLSCAASGFTFSDYAMSWVRQAPGKGLEWVSGITGGGRTYYADSVKGRFTISRDNSKNTLYLQMNSLRPEDTALYYCAAAILTRTRRTYDYWGQGTLVTVSS
notes: monovalent Nanobody; also called Nb 729008; not shown: C-terminal FLAG3 and HIS6 tag
ELISA signal relative to background [33]: 1.04
